Experimental data from patent US20100015130A1 (MIT, published 2010).

Biological target: GSK3β as used in the surface plasmon resonance (SPR) binding assays (Homo sapiens (Human), UniProt P49841 1-420)
Test: SPR, stoichiometry inferred from the response
Method: Surface plasmon resonance (SPR) was used to determine whether peptide 2 directly binds to GSK3β. GSK3β SPR binding assays were carried out with peptide 1, peptide 2, the GSK3β inhibitor L803-MTS, and as a negative control, a peptide from the N-type calcium channel, CACNA1B (FIG. 6A). […] To identify the peptide 2 sequences that mediate this interaction with GSK3β, we designed overlapping 15-mer peptides that covered peptide 2 and tested their binding to GSK3β SPR (FIG. 16B).

GSK3β as used in the surface plasmon resonance (SPR) binding assays, sequence (P49841 whole entry, form in doubt): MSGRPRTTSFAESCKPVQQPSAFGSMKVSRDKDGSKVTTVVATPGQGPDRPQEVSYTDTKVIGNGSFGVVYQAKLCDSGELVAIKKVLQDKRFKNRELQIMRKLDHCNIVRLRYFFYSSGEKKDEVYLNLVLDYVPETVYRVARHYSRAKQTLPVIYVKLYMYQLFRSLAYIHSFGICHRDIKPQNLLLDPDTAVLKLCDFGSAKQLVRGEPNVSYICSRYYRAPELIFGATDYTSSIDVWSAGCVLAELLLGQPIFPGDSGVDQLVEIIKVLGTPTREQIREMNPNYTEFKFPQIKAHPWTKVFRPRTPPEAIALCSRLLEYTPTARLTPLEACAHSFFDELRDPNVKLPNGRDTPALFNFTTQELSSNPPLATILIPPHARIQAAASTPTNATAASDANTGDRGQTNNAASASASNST

Binder	peptide-protein ratio
SFSFIQLSLGAAGER (One of the overlapping 15-mer peptides that cover peptide 2; also called number 43; DISCtide2) [Murine DISC1 peptide 3 (15-mer, mDISC1 amino acids 211 to 225)]	2 peptide:protein
PADIASLPGFQDTFTSSFSFIQLSLGAAGERGEAEGCLPSREAE (Synthetic peptide (Chi Scientific)) [Mouse DISC1 peptide 2 (195-238aa)]	2 peptide:protein
